Assay results reported in the supplement of paper PMC9170038.

Tested on: MS2 coat protein
Assay: apparent KD of MS2 coat protein; designed switch direction (-1 OFF switch, 1 ON switch): 1; higher = weaker reporter binding
Outline: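 The reported apparent KD is a per-design median over clusters, from curve fits of normalised cluster fluorescence. Protein titrations used SNAP-549-labelled MS2 coat protein, doubled from 0.7 or 1.5 nM to 3 µM, in Tris-HCl pH 7.5 buffer with KCl, MgCl2, BSA, DTT, tRNA and Tween-20, with no input, 200 uM small-molecule ligand, or an oligonucleotide input. The RNA switches were transcribed on Illumina chips by stalled E. coli RNA polymerase.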

[1] = Eterna round: R95, input ligand: FMN 200 uM
[2] = Eterna round: R95, input ligand: microRNA oligo, concentration not stated
[3] = Eterna round: R95, input ligand: none
[4] = input ligand: microRNA oligo, concentration not stated

Row | Sequence | apparent KD of MS2 coat protein [1] | apparent KD of MS2 coat protein [2] | apparent KD of MS2 coat protein [3] | apparent KD of MS2 coat protein (input ligand: FMN 200 uM) | apparent KD of MS2 coat protein [4] | apparent KD of MS2 coat protein (input ligand: none)
1 | ACAAGCUUUUUGCUCAUCUUAUGUCCGAAACAUGAGGAUCACCCAUGUAUAGAUUAUGUGUUGUUGUAGAUGCAAGA [JR_SHM208A_Sub062] (puzzle: Sensor for hsa-mir-208a) | 0.0318 µM | 0.0259 µM | 0.0429 µM |  |  | 
2 | AACAUUCUAUCUCAGGAUAUCAUGUCAAAGACAUGAGGAUCACCCAUGUACCAGGAAACUGGUUAUGAGAAGGGAGAUAGAAUGA [Mat - Same State 2 - Mod - D45] (Eterna round: R96, puzzle: Same State 2) |  |  |  | 0.267 µM | 0.517 µM | 1.08 µM
3 | AAACAGCCCAACGGAGGGCCACAUGAGGAUCACCCAUGUACAUAGGAUAUCACGCCAACGAGGCGUGAGAAGGGUGAUUAAAAC [Inesteen] (Eterna round: R96, puzzle: Same State NG 3) |  |  |  | 0.018 µM | 0.0512 µM | 0.0539 µM
4 | AGCUAUUACGAAGGAUAUUGUGACAUGAGGAUCACCCAUGUCUUCAUGAUUUAUUGUGAUCACGUCGAGAAGGUUGUACUAACA [SameState NG2 #28] (Eterna round: R96, puzzle: Same State NG 2) |  |  |  | 0.0505 µM | 0.0563 µM | 0.0576 µM
5 | AACCUACAUGAGGAUCACCCAUGUGUCUAAGGCACAGGAUAUCGACAGGCAAGACACCUGCGAGAAGGGUGACCUA [Diatater] (puzzle: Same State 1) | 0.0562 µM | 0.024 µM | 0.0487 µM |  |  | 
6 | AAAACAGGCUUCCUCUCGUCUCAAAAUGCACAUGAGGAUCACCCAUGUAAAACCCAGCGUAGUGUCGCACUACCUGA [Laresoar] (puzzle: Sensor for hsa-mir-208a) | 0.161 µM | 0.0234 µM | 0.126 µM |  |  | 
7 | UUUAGGUACGGGCAGGAUAUGUAUUAAAAUACAUGAGGAUCACCCAUGUGCGGGUAUAACACCCGACAGAAGGGCCAAUCGUACC [Laonerce - 10] (puzzle: Same State 2) | 0.0251 µM | 0.136 µM | 0.251 µM |  |  | 
8 | GACAAGAAGUCAUAGGAUAUACAAGGAGUGACAUGAGGAUCACCCAUGUACCAUCACACUACCCAGUAGAAGGAUGGCAAUAAAA [Oranor] (puzzle: Same State 2) | 0.0503 µM | 0.384 µM | 0.542 µM |  |  | 
9 | UUGAAUAAUUAAGGAUAUUGAGUACAUAUGUUUAACAUGAGGAUCACCCAUGUGGGUUGCGGUAUCGAGAAGGUAAAUUACUAG [Mat - same State NG 2 - JL mod - D67] (Eterna round: R96, puzzle: Same State NG 2) |  |  |  | 0.145 µM | 0.0838 µM | 0.125 µM
10 | GGUCGGUCCAAACAUGAGGAUCACCCAUGUCCGGAAACGGCAUAGGAUAUCUGUCCGAAAAGGUCAGAGAAGGGUGAACCGACC [Fiskers NG3ss - 71] (Eterna round: R96, puzzle: Same State NG 3) |  |  |  | 0.795 µM | 0.741 µM | 0.149 µM
11 | AUAUAACAUGAGGAUCACCCAUGUCAACAAAGUCGAGGAUAUGGGCAAAUAAAAUAAGAACCAGAAGGCGAAUAAU [salish99_ss1_r3_047] (Eterna round: R96, puzzle: Same State 1) |  |  |  |  | 0.189 µM | 
12 | GUAGCCGGCACUGAGGAUAUUCAUAUUUAAACAUGAGGAUCACCCAUGUAGGCCAGAAGGCCUUGGGAGAAGGCAGGUCGGCUCG [salish99_ss2_r3_081] (puzzle: Same State 2) | 0.0207 µM | 0.21 µM | 0.294 µM |  |  | 
13 | GCUGCAAUUAACGCCUACAUGAGGAUCACCCAUGUAUGUAGGCAGGAUAUCGUUUGCAAAGCAAACGAGAAGGGCCGUAGUAGC [Mat - Same State NG 3 - JL Mod - D34] (Eterna round: R96, puzzle: Same State NG 3) |  |  |  | 0.0289 µM | 0.0489 µM | 0.0738 µM
14 | GCCAACUCAUGAGGAUAUGGCACCUUAAUGGUGCCAGAAGGCAUGUCUAUUGACAUGAGGAUCACCCAUGUAUUUUUGUUGGCA [Fiskers NG1ss - 26] (Eterna round: R96, puzzle: Same State NG 1) |  |  |  | 0.12 µM | 0.75 µM | 1.21 µM
15 | GGGCCAGCCUGUGCUGGGCCUUCGCAUGCACAUGAGGAUCACCCAUGUCGUGUACAUGCUUUUUGCUCGUCUUUAAA [Photon Torp-10] (puzzle: Sensor for hsa-mir-208a) | 0.0409 µM | 0.0126 µM | 0.0427 µM |  |  | 
16 | GGUCCAGCCUGAGCUGGACAAAAGCAUGUACAUGAGGAUCACCCAUGUCAUGUACAAGCUUUUUGCUCGUCUAAAAG [Mat - hsa-mir-208a - 95] (puzzle: Sensor for hsa-mir-208a) | 0.234 µM | 0.019 µM | 0.467 µM |  |  | 

Row | Sequence | apparent KD of MS2 coat protein [1] | apparent KD of MS2 coat protein [2] | apparent KD of MS2 coat protein [3] | apparent KD of MS2 coat protein (input ligand: FMN 200 uM) | apparent KD of MS2 coat protein [4] | apparent KD of MS2 coat protein (input ligand: none)
17 | AUACCAUCGGGAGGAUAUGGCACCUUAUUGGUGCCAGAAGGUCCAACAUGAGGAUCACCCAUGUGGGAGUGGUCUAAUGACCAC [Fiskers NG1ss - 28] (Eterna round: R96, puzzle: Same State NG 1) |  |  |  | 0.121 µM | 0.12 µM | 0.171 µM
18 | UUAAUUAAUUAAUUAUACAUGAGGAUCACCCAUGUAAGUGAUCAGGAUAUCAGCUCGAUUAGAGCUGAGAAGGGAUCCAUGUAA [SSNG3/14-A2] (Eterna round: R96, puzzle: Same State NG 3) |  |  |  |  | 0.078 µM | 
19 | AGAUCAUGACGAGGAUAUCCGACAUGAGGAUCACCCAUGUAUGUUGGAGGACGCGUACGUCCAAUGGAGAAGGCGUCGUGGUCA [JL SSNG2 1.04] (Eterna round: R96, puzzle: Same State NG 2) |  |  |  | 0.0136 µM | 0.0118 µM | 0.0149 µM
20 | GUAUCUUCAGGUUGCAAUGCUCGUCGGAUACAUGAGGAUCACCCAUGUUAUUAACCUGUGCUUGCGCGGGUAUGAUU [Photon Torp-01] (puzzle: Sensor for hsa-mir-208a) | 0.0218 µM | 0.0325 µM | 0.0233 µM |  |  | 
21 | GCUCGCGGCACAGGAUAUGGGUGCCUGUACAUGAGGAUCACCCAUGUUAAGGGACGGAUUACGAACCAGAAGGGUGAGGCGGGC [Axearisar] (Eterna round: R96, puzzle: Same State NG 2) |  |  |  | 0.0638 µM | 0.12 µM | 0.768 µM
22 | UGUUGUAUUACAGGAUAUCUAGUAUUUUUACUUAGAGAAGGGUAUUCACAUGAGGAUCACCCAUGUAUAUACGAGGAAGUUGUG [JMF's solution 50] (Eterna round: R96, puzzle: Same State NG 1) |  |  |  |  | 0.0229 µM | 
23 | UCUUGGUUUUUGCUCGUUUUUUGUGUUGAACAUGAGGAUCACCCAUGUAUUAUACGAUCCGGUUUAAUAAUAAUCCG [JMF 80] (puzzle: Sensor for hsa-mir-208a) | 0.0237 µM | 0.0161 µM | 0.0272 µM |  |  | 
24 | CAUCGUUUGAUAGGAUAUCGCUAUACAUGAGGAUCACCCAUGUUUACCACGCUGGUUUUUCAUACCGAGAAGGAUUCUGAUGAU [salish99_SSNG02_r04_013] (Eterna round: R96, puzzle: Same State NG 2) |  |  |  | 0.0296 µM | 0.0278 µM | 0.0325 µM
25 | AAUUAAGAUCAAGGAUAUCACGUCGAAUAGACGUGAGAAGGUGAUCCAUACAUGAGGAUCACCCAUGUAUAACAUGAAUUAAUU [SSNG1/8-B1] (Eterna round: R96, puzzle: Same State NG 1) |  |  |  |  | 0.607 µM | 
26 | GCUCGACGUAUUGUCUACAUGAGGAUCACCCAUGUAGGUGCGGAGGAUAUUUACGUGUCUCAUGUAGAGAAGGCCGUGUCGAGC [SameState NG3 #96] (Eterna round: R96, puzzle: Same State NG 3) |  |  |  | 0.0371 µM | 0.216 µM | 0.329 µM
27 | ACCCAAAGUAUAUGGGAACAAGCUUUUUAACAUGAGGAUCACCCAUGUGCUCGUCUUAUAAGCAGUCGAAAGACUGC [Sensor 100 - 7] (puzzle: Sensor for hsa-mir-208a) | 0.0651 µM |  | 0.069 µM |  |  | 
28 | GGAGCCAAGGCAGGAUAUUCAUAUUAUAAACAUGAGGAUCACCCAUGUAGGGCCAGAAGGCCUUGGGAGAAGGGCCAUGGCUCG [Xeonanis - 13 mod16] (Eterna round: R96, puzzle: Same State NG 2) |  |  |  | 0.0202 µM | 0.0538 µM | 0.071 µM
29 | UAUCCAUAGAUAGGAUAUUAGUGAACAUGAGGAUCACCCAUGUUUGGCUUGGUUUUAAGCUAAUCUGAGAAGGAUCUUGAUGAA [SameState NG2 #7] (Eterna round: R96, puzzle: Same State NG 2) |  |  |  | 0.15 µM | 0.0985 µM | 0.164 µM
30 | GGUGCCAAAUAAGCCUACAUGAGGAUCACCCAUGUAUGUAGGCAGGAUAUCGUAUGCAAAGCAUACGAGAAGGGCUGAGGCACC [Mat - Same State NG 3 - JL Mod - D54] (Eterna round: R96, puzzle: Same State NG 3) |  |  |  | 0.0257 µM | 0.0516 µM | 0.0805 µM
31 | AGAUGUUAAUCAGGAUAUGGGCACAUGAGGAUCACCCAUGUAAAGUAGAUACUAUGUGGUCAAGUCUAGAAGGGAUGGCUAACA [SameState NG2 #80] (Eterna round: R96, puzzle: Same State NG 2) |  |  |  | 0.433 µM | 0.282 µM | 0.279 µM
